In test [1] the target is human GDF15 protein (Novoprotein, Cat# DRA26) (human) (UniProt Q99988). Description: cell-based or functional assay.
The target is the same in test [2]. Put plainly: ELISA, human GDF15 coated, anti-human Fc-HRP detection.
Test [3] concerns the target GDF15-Biotin protein (KACTUS, Cat# GDF-HM215B) (human) (UniProt Q99988). Description: blocking ELISA: GFRAL coated, 20 ng/mL GDF15-Biotin with titrated antibody, Streptavidin-HRP. (ELISA stands for enzyme-linked immunosorbent assay.)
Test [4] has as its target Human GDNF protein (Novoprotein, Cat# C226) (human) (UniProt P39905). Description: ELISA, GDNF coated, antibody from 2,000 nM, anti-human Fc-HRP detection.
In test [5] the target is ARTN protein (Novoprotein, Cat# CR34) (human) (UniProt Q5T4W7). Description: ELISA, ARTN coated, antibody from 2,000 nM, anti-human Fc-HRP detection.
Test [6] has as its target T1, human GDF15 protein (Novoprotein, Cat# DRA26) (human, UniProt Q99988 197-308).
T1 sequence (looked up): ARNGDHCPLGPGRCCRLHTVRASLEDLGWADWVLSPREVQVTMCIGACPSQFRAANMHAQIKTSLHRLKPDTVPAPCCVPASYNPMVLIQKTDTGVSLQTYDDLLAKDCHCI
Description: cell-based or functional assay.

The target in test [7] is T2, GDF15-Biotin protein (KACTUS, Cat# GDF-HM215B) (human, UniProt Q99988 197-308, limits assumed, biotin (site not stated)).
T2 construct: Bought biotinylated protein; also called human GDF15
T2 sequence (looked up): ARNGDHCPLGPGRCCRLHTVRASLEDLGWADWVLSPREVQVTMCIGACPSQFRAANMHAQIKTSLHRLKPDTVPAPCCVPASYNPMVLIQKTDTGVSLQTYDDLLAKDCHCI
Put plainly: blocking ELISA: GFRAL coated, 20 ng/mL GDF15-Biotin with titrated antibody, Streptavidin-HRP.

The target of test [8] is T1, human GDF15 protein (Novoprotein, Cat# …). Description: ELISA, human GDF15 coated, anti-human Fc-HRP detection.
In test [9] the target is T3, Human GDNF protein (Novoprotein, Cat# C226) (human, UniProt P39905 78-211).
T3 construct: Bought protein
T3 sequence (looked up): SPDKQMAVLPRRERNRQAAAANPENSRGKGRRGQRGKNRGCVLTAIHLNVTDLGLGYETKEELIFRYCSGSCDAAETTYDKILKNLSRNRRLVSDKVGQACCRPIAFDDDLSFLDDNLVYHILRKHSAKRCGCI
Put plainly: ELISA, GDNF coated, antibody from 2,000 nM.

ARTN protein (Novoprotein, Cat# CR34) (human), sequence (Q5T4W7 108-220 limits assumed): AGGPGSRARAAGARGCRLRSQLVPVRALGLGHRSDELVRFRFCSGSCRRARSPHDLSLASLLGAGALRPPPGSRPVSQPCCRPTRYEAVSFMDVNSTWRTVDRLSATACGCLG

Turning to “CTL002 (CatalYm humanized GDF15 monoclonal antibody, positive control)”, the IC50 of GDF15 reporter gene activity in [1] came out at 1.99 nM. The same molecule displayed an EC50 in [2] of 0.0933 nM. The molecule further registered an IC50 in test [3] of 1.5 nM.
Regarding “PF-06946860 (Pfizer GDF15 monoclonal antibody, positive control)”, the values for the EC50 in test [4], in test [5] and in test [2] were 278 nM, 97.1 nM and 0.0974 nM, respectively. Also, the IC50 of GDF15 reporter gene activity in [1] turned out to be 0.0475 nM. In [3], this molecule gave an IC50 of 0.11 nM.

B1: LN13 GDF15 heavy chain single-domain antibody (full-length, VHH joined to human IgG1 Fc) (antibody, V domains shown)
VH: QLQLVESGGGLVQPGGSLRLSCAASGFTLDYYAIGWFRQAPGKGPEAVSCISSSDGSTYYSDSVKGRFTISRDNAKNTVYLQMNSLKPEDTAVYYCAAGEYGSDCPVQVGSWGQGTQVTVSS
notes: expressed in CHO cells; No light chain; also called LN13 full-length
In the case of B1, the “IC50 of GDF15 reporter gene activity” value in test [6] is 0.0719 nM. In test [7], this molecule had an IC50 of 0.147 nM. The molecule also displayed an EC50 in test [8] of 0.0858 nM. In addition, in test [9], the binding result is “binds”.

B2: LN14 GDF15 heavy chain single-domain antibody (full-length, VHH joined to human IgG1 Fc) (antibody, V domains shown)
VH: QVQLVESGGGLVQPGGSLRLACAASGFTLDAYAVGWFRQAPGKNPEGVSCISSSDGSAYYADSVKGRFTISRDNAKNTVYLQMNSLKPGDTAVYYCAADLSCPVQIATFHSRGQGTQVTVSS
notes: expressed in CHO cells; No light chain; also called LN14 full-length
As to B2, the “IC50 of GDF15 reporter gene activity” value in test [6] came to 0.0701 nM. In [7], this molecule registered an IC50 of 0.16 nM. Moreover, in test [8], the midpoint of the response, the EC50, lay at 0.0988 nM.

B3: LN05 GDF15 heavy chain single-domain antibody (full-length, VHH joined to human IgG1 Fc) (antibody, V domains shown)
VH: QVQLVESGGGLVQPGGSLRLSCAASGFTLDYYAIGWFRQAPGKGREGVSCISSNDGSTYYSDSVKGRFTTSRDNAKNTVYLQMNSLKPEDTAVYYCAADLTPCPVNPSVDHYWGQGTQVTVSS
notes: expressed in CHO cells, Protein A purified; No light chain; also called LN05 full-length
Turning to B3, the “IC50 of GDF15 reporter gene activity” value in test [6] was determined as 0.0778 nM. The IC50 in [7] stood at 0.221 nM. This molecule came in with an EC50 in [8] of 0.0912 nM. Further, the binding result in test [9] is on record as “binds”.

B4: LN06 GDF15 heavy chain single-domain antibody (full-length, VHH joined to human IgG1 Fc) (antibody, V domains shown)
VH: QLQLVESGGGLVQPGGSLRLSCVASGFTLDDYAIGWFRQAPGKGLEGVSCISSSDESTYYADSVKGRFTISRDNAKNTAYLQMNSLKPEDTAIYYCAADTECPVQVTSMAWGQGTQVTVSS
notes: expressed in CHO cells; No light chain; also called LN06 full-length
Regarding B4, the “IC50 of GDF15 reporter gene activity” value in test [6] stood at 0.0705 nM. This molecule had an IC50 in test [7] of 0.175 nM. The EC50 in [8] turned out to be 0.0832 nM. Also, the binding result in test [9] is “binds”.

B5: LN25 GDF15 heavy chain single-domain antibody (full-length, VHH joined to human IgG1 Fc) (antibody, V domains shown)
VH: QLQLVESGGGEVQPGGSLRLSCAASGATLDDLSIGWFRQAPGKGLEGVSCISSSDGSTYYADSVKGRFTISRDNAKNTAYLQMNSLRPEDTAVYYCAADREDCPVQPWGIVAGTSRGQGTQVTVSS
notes: expressed in CHO cells; No light chain; also called LN25 full-length
With B5, the “IC50 of GDF15 reporter gene activity” value in test [6] was 0.0735 nM. In [7], this molecule returned an IC50 of 0.171 nM. This molecule came in with an EC50 in test [8] of 0.0892 nM. Moreover, the binding result in test [9] is recorded as “binds”.

B6: LN11 GDF15 heavy chain single-domain antibody (VHH joined to human IgG1 Fc) (antibody, V domains shown)
VH: QVQLVESGGGLVQPGGSLRLSCAASGFTIRTYTMSWYRQAPGKERALVAYITPGGPTYHIDSVKGRFTISRNNAENTVYLQMNSLKPEDTAVYYCGNGFGSWGQGTQVTVSS
B6: a half-maximal effect in test [8] (EC50) was put at 0.382 nM.

As usually defined, the EC50 is the concentration that produces a half-maximal response. Lower therefore signals higher potency in that assay. As a reminder, the IC50 is the midpoint of a concentration-inhibition curve. Read a high IC50 as lower potency.

These data come from patent EP4692116A1 (Kexing Biopharm Co., Ltd., dated 2026).
